According to IntAct's records for PubMed 12802020:

B1: Tumor susceptibility gene 101 protein (Homo sapiens), Q99816 (parent)
chain: MAVSESQLKKMVSKYKYRDLTVRETVNVITLYKDLKPVLDSYVFNDGSSRELMNLTGTIPVPYRGNTYNIPICLWLLDTYPYNPPICFVKPTSSMTIKTGKHVDANGKIYLPYLHEWKHPQSDLLGLIQVMIVVFGDEPPVFSRPISASYPPYQATGPPNTSYMPGMPGGISPYPSGYPPNPSGYPGCPYPPGGPYPATTSSQYPSQPPVTTVGPSRDGTISEDTIRASLISAVSDKLRWRMKEEMDRAQAELNALKRTEEDLKKGHQKLEEMVTRLDQEVAEVDKNIELLKKKDEELSSALEKMENQSENNDIDEVIIPTAPLYKQILNLYAEENAIEDTIFYLGEALRRGVIDLDVFLKHVRLLSRKQFQLRALMQKARKTAGLSDLY

Variants of: B1
Conditions: with hgs_human HGS
For MAVSESQLKKMVSKYKYRDLTVRETVNVITLYKDLKPVLDSYVFNDGSSRELMNLTGTIPVPYRGNTYNIPICLWLLDTYPYNPPICFAKPTSSMTIKTGKHVDANGKIYLPYLHEWKHPQSDLLGLIQVMIVVFGDEPPVFSRPISASYPPYQATGPPNTSYMPGMPGGISPYPSGYPPNPSGYPGCPYPPGGPYPATTSSQYPSQPPVTTVGPSRDGTISEDTIRASLISAVSDKLRWRMKEEMDRAQAELNALKRTEEDLKKGHQKLEEMVTRLDQEVAEVDKNIELLKKKDEELSSALEKMENQSENNDIDEVIIPTAPLYKQILNLYAEENAIEDTIFYLGEALRRGVIDLDVFLKHVRLLSRKQFQLRALMQKARKTAGLSDLY [V89A], the “effect of a mutation on the interaction” value was “decreasing interaction strength”. With MAVSESQLKKMVSKYKYRDLTVRETVNVITLYKDLKPVLDSYVFNDGSSRELMNLTGTIPVPARGNTYNIPICLWLLDTYPYNPPICFVKPTSSMTIKTGKHVDANGKIYLPYLHEWKHPQSDLLGLIQVMIVVFGDEPPVFSRPISASYPPYQATGPPNTSYMPGMPGGISPYPSGYPPNPSGYPGCPYPPGGPYPATTSSQYPSQPPVTTVGPSRDGTISEDTIRASLISAVSDKLRWRMKEEMDRAQAELNALKRTEEDLKKGHQKLEEMVTRLDQEVAEVDKNIELLKKKDEELSSALEKMENQSENNDIDEVIIPTAPLYKQILNLYAEENAIEDTIFYLGEALRRGVIDLDVFLKHVRLLSRKQFQLRALMQKARKTAGLSDLY [Y63A] the “effect of a mutation on the interaction” value was “decreasing interaction”. In the case of MAVSESQLKKMVSKYKYRDLTVRETVNVITLYKDLKPVLDSYVFNDGSSRELMNLTGTIPVPYRGNTYNIPICLWLLDTYPYNPPICFVKPTSSMTIKTGKHVDANGKIYLPYLHEWKHPQSDLLGLIQVMIVVFGDEPPVFSRPISASYPPYQATGPPNTSYMPGMPGGISPYPSGYPPNPSGYPGCPYPPGGPYPATTSSQYPSQPPVTTVGPSRDGTISEDTIRASLISAVSDKLRWRMKEEMDRAQAELNALKRTEEDLKKGHQKLEEMVTRLDQEVAEVDKNIELLKKKDEELSSALEKMENQSENNDIDEVIILTALLYKQILNLYAEENAIEDTIFYLGEALRRGVIDLDVFLKHVRLLSRKQFQLRALMQKARKTAGLSDLY [P320L;P323L], the “effect of a mutation on the interaction” value is reported as “increasing interaction strength”. MAVSESQLKKMVSKYKYRDLTVRETVNVITLYKDLKPVLDSYVFADGSSRELMNLTGTIPVPYRGNTYNIPICLWLLDTYPYNPPICFVKPTSSMTIKTGKHVDANGKIYLPYLHEWKHPQSDLLGLIQVMIVVFGDEPPVFSRPISASYPPYQATGPPNTSYMPGMPGGISPYPSGYPPNPSGYPGCPYPPGGPYPATTSSQYPSQPPVTTVGPSRDGTISEDTIRASLISAVSDKLRWRMKEEMDRAQAELNALKRTEEDLKKGHQKLEEMVTRLDQEVAEVDKNIELLKKKDEELSSALEKMENQSENNDIDEVIIPTAPLYKQILNLYAEENAIEDTIFYLGEALRRGVIDLDVFLKHVRLLSRKQFQLRALMQKARKTAGLSDLY [N45A] was tested, and the “effect of a mutation on the interaction” value was “decreasing interaction strength”. For MAVSESQLKKMVSKYKYRDLTVRETVNVITLYKDLKPVLDSYVFNDGSSRELMNLTGTIPVPYRGNTYNIPICLWLLDTYPYNPPICFVKPTSSATIKTGKHVDANGKIYLPYLHEWKHPQSDLLGLIQVMIVVFGDEPPVFSRPISASYPPYQATGPPNTSYMPGMPGGISPYPSGYPPNPSGYPGCPYPPGGPYPATTSSQYPSQPPVTTVGPSRDGTISEDTIRASLISAVSDKLRWRMKEEMDRAQAELNALKRTEEDLKKGHQKLEEMVTRLDQEVAEVDKNIELLKKKDEELSSALEKMENQSENNDIDEVIIPTAPLYKQILNLYAEENAIEDTIFYLGEALRRGVIDLDVFLKHVRLLSRKQFQLRALMQKARKTAGLSDLY [M95A], the “effect of a mutation on the interaction” value was “decreasing interaction strength”.
